Results as given in patent US20200316166A1, “Drug and Method for Treating Liver Diseases Related to Hepatitis B Viruses in Full-Dose Condition” (Shanghai Hep Pharmaceutical Co., Ltd., priority 2017, published 2020).

Tests used:
NTCP = target: T1, NTCP (Homo sapiens, UniProt Q14973); experiment: Binding of FITC-labeled polypeptide to NTCP-293 cells; conditions: FITC label; for binding to NTCP-293 cells: 293 cells transfected with NTCP; for binding to 293 cells not transfected with NTCP (BLANK-293): control cells
T1 construct: expressed in transfected cells; host or cells: 293 (HEK293) cells
T1 sequence (Q14973 1-349): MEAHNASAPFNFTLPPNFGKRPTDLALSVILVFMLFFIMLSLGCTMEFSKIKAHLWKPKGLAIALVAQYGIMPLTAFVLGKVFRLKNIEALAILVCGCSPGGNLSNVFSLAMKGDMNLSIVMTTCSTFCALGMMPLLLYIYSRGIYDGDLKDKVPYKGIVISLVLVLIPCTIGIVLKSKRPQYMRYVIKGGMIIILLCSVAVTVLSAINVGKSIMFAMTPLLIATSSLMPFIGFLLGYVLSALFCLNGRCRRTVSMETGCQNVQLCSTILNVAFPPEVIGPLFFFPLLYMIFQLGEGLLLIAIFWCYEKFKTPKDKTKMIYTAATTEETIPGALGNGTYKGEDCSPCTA
Excerpt: NTCP-293 cell line was formed by transfecting non-hepatocyte-derived 293 cells with NTCP.

[1] = target: sodium taurocholate cotransporting polypeptide (NTCP) expressed on transfected 293 cells (NTCP-293) (human) (UniProt Q14973); experiment: cell-based or functional assay
[2] = listed as hepalatide labeled with FIFC

Sequence of hepalatide (P31868 13-59): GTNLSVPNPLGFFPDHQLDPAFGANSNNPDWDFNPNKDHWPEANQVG

Substance | binding to NTCP-293 cells (NTCP) | binding to NTCP-293 cells (NTCP; [2]) | binding to 293 cells not transfected with NTCP (BLANK-293) (NTCP) | binding to 293 cells not transfected with NTCP (BLANK-293) (NTCP; [2]) | IC50 of inhibition of NTCP-293 uptake of 3H-labeled bile acid (3H-TA) [1]
FITC-hepalatide: hepalatide (Cmyr-47) fluorescently labeled by FITC at amino acid K at position 37 | bound to NTCP-293 cells | bind to NTCP expressing HEK293 cells | did not bind to 293 cells | do not bind to control HEK293 cells | 
hepalatide (peptide) |  |  |  |  | 0.839 µg/mL
